Patent US20140087995A1 (published 2014)
Numbered stars: 1 amine (or outer) side, 2 acyl side, 3 side chain; on linkers, the order of the positions; unused ones are H or OH. Bridge positions count the residues as written; N and C are the ends. Side chains are listed from the residue outwards. Ends that are not written are not given here. * marks the point of attachment. C20 diacid = O=C(O)CCCCCCCCCCCCCCCCCCC(=O)*; γGlu = O=C(O)[C@H](CCC(=O)[*:2])N[*:1]

T1: human calcitonin receptor (human, UniProt P30988 25-474)
T1 sequence (looked up): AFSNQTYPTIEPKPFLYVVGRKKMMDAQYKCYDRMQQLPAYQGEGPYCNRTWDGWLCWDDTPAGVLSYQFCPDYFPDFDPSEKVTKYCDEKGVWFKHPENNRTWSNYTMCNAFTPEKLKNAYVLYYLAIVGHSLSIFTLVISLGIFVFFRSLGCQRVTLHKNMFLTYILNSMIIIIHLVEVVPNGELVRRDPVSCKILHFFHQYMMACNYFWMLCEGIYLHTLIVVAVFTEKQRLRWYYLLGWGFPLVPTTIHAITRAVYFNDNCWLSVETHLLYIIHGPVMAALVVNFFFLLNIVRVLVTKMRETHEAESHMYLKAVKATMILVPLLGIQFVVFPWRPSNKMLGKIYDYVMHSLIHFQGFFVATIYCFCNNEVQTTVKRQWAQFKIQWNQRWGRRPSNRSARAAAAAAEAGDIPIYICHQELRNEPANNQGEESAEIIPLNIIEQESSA

T2: human amylin receptor (Amylin 3(a) receptor: human calcitonin receptor co-expressed with RAMP-3) (human, UniProt P30988 25-474; O60896 24-148, limits assumed)
T2 construct: whole, on cells; Used as cell membranes prepared from the Amylin 3(a)/CRE-luc BHK cells (Assay V); the complex is called the human amylin receptor; also called hAmylin-R; hAmylinR
T2 sequence (looked up) 1: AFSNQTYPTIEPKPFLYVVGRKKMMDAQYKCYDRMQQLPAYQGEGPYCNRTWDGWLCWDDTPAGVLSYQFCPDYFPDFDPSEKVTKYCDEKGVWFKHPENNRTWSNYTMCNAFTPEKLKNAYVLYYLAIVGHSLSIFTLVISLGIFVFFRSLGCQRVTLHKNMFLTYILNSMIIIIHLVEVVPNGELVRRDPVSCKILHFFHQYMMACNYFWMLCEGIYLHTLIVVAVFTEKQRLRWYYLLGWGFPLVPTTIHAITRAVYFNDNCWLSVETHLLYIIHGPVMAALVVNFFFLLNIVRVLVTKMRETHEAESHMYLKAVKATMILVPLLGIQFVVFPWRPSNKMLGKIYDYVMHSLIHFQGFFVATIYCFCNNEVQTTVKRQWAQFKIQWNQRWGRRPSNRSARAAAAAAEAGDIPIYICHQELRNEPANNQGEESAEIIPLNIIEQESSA
T2 sequence (looked up) 2: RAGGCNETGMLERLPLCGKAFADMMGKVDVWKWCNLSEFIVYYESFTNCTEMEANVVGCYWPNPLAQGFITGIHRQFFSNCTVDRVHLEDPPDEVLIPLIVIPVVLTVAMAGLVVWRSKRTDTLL

B1: N{-1}-[(4S)-4-carboxy-4-(19-carboxynonadecanoylamino)butanoyl]-Gly[Arg1,His14,Arg17,Pro21,Pro27]-h-amylin (peptide)
peptide: {C20 diacid-γGlu}-GRCNTATCATQRLAHFLRHSSPNFGAIPSSTNVGSNTY-NH2
modifications: disulfide 3-8
SMILES: CC[C@H](C)[C@H](NC(=O)[C@H](C)NC(=O)CNC(=O)[C@H](Cc1ccccc1)NC(=O)[C@H](CC(N)=O)NC(=O)[C@@H]1CCCN1C(=O)[C@H](CO)NC(=O)[C@H](CO)NC(=O)[C@H](Cc1c[nH]cn1)NC(=O)[C@H](CCCNC(=N)N)NC(=O)[C@H](CC(C)C)NC(=O)[C@H](Cc1ccccc1)NC(=O)[C@H](Cc1c[nH]cn1)NC(=O)[C@H](C)NC(=O)[C@H](CC(C)C)NC(=O)[C@H](CCCNC(=N)N)NC(=O)[C@H](CCC(N)=O)NC(=O)[C@@H](NC(=O)[C@H](C)NC(=O)[C@@H]1CSSC[C@H](NC(=O)[C@H](CCCNC(=N)N)NC(=O)CNC(=O)CC[C@H](NC(=O)CCCCCCCCCCCCCCCCCCC(=O)O)C(=O)O)C(=O)N[C@@H](CC(N)=O)C(=O)N[C@@H]([C@@H](C)O)C(=O)N[C@@H](C)C(=O)N[C@@H]([C@@H](C)O)C(=O)N1)[C@@H](C)O)C(=O)N1CCC[C@H]1C(=O)N[C@@H](CO)C(=O)N[C@@H](CO)C(=O)N[C@H](C(=O)N[C@@H](CC(N)=O)C(=O)N[C@H](C(=O)NCC(=O)N[C@@H](CO)C(=O)N[C@@H](CC(N)=O)C(=O)N[C@H](C(=O)N[C@@H](Cc1ccc(O)cc1)C(N)=O)[C@@H](C)O)C(C)C)[C@@H](C)O
notes: N-terminal extension by Gly; synthetic peptide amide; also called compound 99
B2: N^-1-[(4S)-4-carboxy-4-(19-carboxynonadecanoylamino)butanoyl]-Gly[Arg1,His14,Arg17,Pro21,Pro27,His34]-h-amylin (peptide)
peptide: {C20 diacid-γGlu}-GRCNTATCATQRLAHFLRHSSPNFGAIPSSTNVGHNTY-NH2
modifications: disulfide 3-8
SMILES: CC[C@H](C)[C@H](NC(=O)[C@H](C)NC(=O)CNC(=O)[C@H](Cc1ccccc1)NC(=O)[C@H](CC(N)=O)NC(=O)[C@@H]1CCCN1C(=O)[C@H](CO)NC(=O)[C@H](CO)NC(=O)[C@H](Cc1c[nH]cn1)NC(=O)[C@H](CCCNC(=N)N)NC(=O)[C@H](CC(C)C)NC(=O)[C@H](Cc1ccccc1)NC(=O)[C@H](Cc1c[nH]cn1)NC(=O)[C@H](C)NC(=O)[C@H](CC(C)C)NC(=O)[C@H](CCCNC(=N)N)NC(=O)[C@H](CCC(N)=O)NC(=O)[C@@H](NC(=O)[C@H](C)NC(=O)[C@@H]1CSSC[C@H](NC(=O)[C@H](CCCNC(=N)N)NC(=O)CNC(=O)CC[C@H](NC(=O)CCCCCCCCCCCCCCCCCCC(=O)O)C(=O)O)C(=O)N[C@@H](CC(N)=O)C(=O)N[C@@H]([C@@H](C)O)C(=O)N[C@@H](C)C(=O)N[C@@H]([C@@H](C)O)C(=O)N1)[C@@H](C)O)C(=O)N1CCC[C@H]1C(=O)N[C@@H](CO)C(=O)N[C@@H](CO)C(=O)N[C@H](C(=O)N[C@@H](CC(N)=O)C(=O)N[C@H](C(=O)NCC(=O)N[C@@H](Cc1c[nH]cn1)C(=O)N[C@@H](CC(N)=O)C(=O)N[C@H](C(=O)N[C@@H](Cc1ccc(O)cc1)C(N)=O)[C@@H](C)O)C(C)C)[C@@H](C)O
notes: N-terminal extension by Gly; synthetic peptide amide; also called compound 100
B3: N^ε1-[(4S)-4-carboxy-4-(19-carboxynonadecanoylamino)butanoyl]-[Glu14,Arg17,Pro21,Pro27,Pro34,Glu35]-h-amylin (peptide)
peptide: K([γGlu-C20 diacid])CNTATCATQRLAEFLRHSSPNFGAIPSSTNVGPETY-NH2
modifications: disulfide 2-7; N-terminus assumed
SMILES: CC[C@H](C)[C@H](NC(=O)[C@H](C)NC(=O)CNC(=O)[C@H](Cc1ccccc1)NC(=O)[C@H](CC(N)=O)NC(=O)[C@@H]1CCCN1C(=O)[C@H](CO)NC(=O)[C@H](CO)NC(=O)[C@H](Cc1c[nH]cn1)NC(=O)[C@H](CCCNC(=N)N)NC(=O)[C@H](CC(C)C)NC(=O)[C@H](Cc1ccccc1)NC(=O)[C@H](CCC(=O)O)NC(=O)[C@H](C)NC(=O)[C@H](CC(C)C)NC(=O)[C@H](CCCNC(=N)N)NC(=O)[C@H](CCC(N)=O)NC(=O)[C@@H](NC(=O)[C@H](C)NC(=O)[C@@H]1CSSC[C@H](NC(=O)[C@@H](N)CCCCNC(=O)CC[C@H](NC(=O)CCCCCCCCCCCCCCCCCCC(=O)O)C(=O)O)C(=O)N[C@@H](CC(N)=O)C(=O)N[C@@H]([C@@H](C)O)C(=O)N[C@@H](C)C(=O)N[C@@H]([C@@H](C)O)C(=O)N1)[C@@H](C)O)C(=O)N1CCC[C@H]1C(=O)N[C@@H](CO)C(=O)N[C@@H](CO)C(=O)N[C@H](C(=O)N[C@@H](CC(N)=O)C(=O)N[C@H](C(=O)NCC(=O)N1CCC[C@H]1C(=O)N[C@@H](CCC(=O)O)C(=O)N[C@H](C(=O)N[C@@H](Cc1ccc(O)cc1)C(N)=O)[C@@H](C)O)C(C)C)[C@@H](C)O
notes: synthetic peptide amide
B4: N^ε1-[(4S)-4-carboxy-4-[[(4S)-4-carboxy-4-(19-carboxynonadecanoylamino)butanoyl]amino]butanoyl]-[Glu14,Arg17,Pro21,Pro27,Pro34,Glu35]-h-amylin (peptide)
peptide: K([γGlu-γGlu-C20 diacid])CNTATCATQRLAEFLRHSSPNFGAIPSSTNVGPETY-NH2
modifications: disulfide 2-7 (inferred)
notes: modifications are with respect to human amylin
B5: N^-1-[(4S)-4-carboxy-4-(19-carboxynonadecanoylamino)butanoyl]-Gly[Arg1,His14,Arg17,Pro21,Pro27,His34]-h-amylin (peptide)
peptide: {C20 diacid-γGlu}-GRCNTATCATQRLAHFLRHSSPNFGAIPSSTNVGHNTY-NH2
modifications: disulfide 3-8
SMILES: CC[C@H](C)[C@H](NC(=O)[C@H](C)NC(=O)CNC(=O)[C@H](Cc1ccccc1)NC(=O)[C@H](CC(N)=O)NC(=O)[C@@H]1CCCN1C(=O)[C@H](CO)NC(=O)[C@H](CO)NC(=O)[C@H](Cc1c[nH]cn1)NC(=O)[C@H](CCCNC(=N)N)NC(=O)[C@H](CC(C)C)NC(=O)[C@H](Cc1ccccc1)NC(=O)[C@H](Cc1c[nH]cn1)NC(=O)[C@H](C)NC(=O)[C@H](CC(C)C)NC(=O)[C@H](CCCNC(=N)N)NC(=O)[C@H](CCC(N)=O)NC(=O)[C@@H](NC(=O)[C@H](C)NC(=O)[C@@H]1CSSC[C@H](NC(=O)[C@H](CCCNC(=N)N)NC(=O)CNC(=O)CC[C@H](NC(=O)CCCCCCCCCCCCCCCCCCC(=O)O)C(=O)O)C(=O)N[C@@H](CC(N)=O)C(=O)N[C@@H]([C@@H](C)O)C(=O)N[C@@H](C)C(=O)N[C@@H]([C@@H](C)O)C(=O)N1)[C@@H](C)O)C(=O)N1CCC[C@H]1C(=O)N[C@@H](CO)C(=O)N[C@@H](CO)C(=O)N[C@H](C(=O)N[C@@H](CC(N)=O)C(=O)N[C@H](C(=O)NCC(=O)N[C@@H](Cc1c[nH]cn1)C(=O)N[C@@H](CC(N)=O)C(=O)N[C@H](C(=O)N[C@@H](Cc1ccc(O)cc1)C(N)=O)[C@@H](C)O)C(C)C)[C@@H](C)O
notes: modifications are with respect to human amylin; also called compound 100
B6: N{-1}-[(4S)-4-carboxy-4-(19-carboxynonadecanoylamino)butanoyl]-Gly[Arg1,His14,Arg17,Pro21,Pro27]-h-amylin (peptide)
peptide: {C20 diacid-γGlu}-GRCNTATCATQRLAHFLRHSSPNFGAIPSSTNVGSNTY-NH2
modifications: disulfide 3-8
SMILES: CC[C@H](C)[C@H](NC(=O)[C@H](C)NC(=O)CNC(=O)[C@H](Cc1ccccc1)NC(=O)[C@H](CC(N)=O)NC(=O)[C@@H]1CCCN1C(=O)[C@H](CO)NC(=O)[C@H](CO)NC(=O)[C@H](Cc1c[nH]cn1)NC(=O)[C@H](CCCNC(=N)N)NC(=O)[C@H](CC(C)C)NC(=O)[C@H](Cc1ccccc1)NC(=O)[C@H](Cc1c[nH]cn1)NC(=O)[C@H](C)NC(=O)[C@H](CC(C)C)NC(=O)[C@H](CCCNC(=N)N)NC(=O)[C@H](CCC(N)=O)NC(=O)[C@@H](NC(=O)[C@H](C)NC(=O)[C@@H]1CSSC[C@H](NC(=O)[C@H](CCCNC(=N)N)NC(=O)CNC(=O)CC[C@H](NC(=O)CCCCCCCCCCCCCCCCCCC(=O)O)C(=O)O)C(=O)N[C@@H](CC(N)=O)C(=O)N[C@@H]([C@@H](C)O)C(=O)N[C@@H](C)C(=O)N[C@@H]([C@@H](C)O)C(=O)N1)[C@@H](C)O)C(=O)N1CCC[C@H]1C(=O)N[C@@H](CO)C(=O)N[C@@H](CO)C(=O)N[C@H](C(=O)N[C@@H](CC(N)=O)C(=O)N[C@H](C(=O)NCC(=O)N[C@@H](CO)C(=O)N[C@@H](CC(N)=O)C(=O)N[C@H](C(=O)N[C@@H](Cc1ccc(O)cc1)C(N)=O)[C@@H](C)O)C(C)C)[C@@H](C)O
notes: modifications are with respect to human amylin; also called compound 99

Each binder was assayed against T1, human calcitonin receptor (assay: cell-based or functional assay).
In the case of B1, the “hCTR funct. EC50 (pM)” value is reported as 818 pM. B2 was tested, and the “hCTR funct. EC50 (pM)” value was 1730 pM. In the case of B3, the “hCTR funct. EC50 (pM)” value is reported as 841 pM.

The binders below were run against T2, human amylin receptor (Amylin 3(a) …) (assay: SPA competition binding, displacement of 125I-rat amylin from membranes of BHK cells with human calcitonin receptor + RAMP-3 (Assay V)).
Experimental: The binding assay was performed using scintillation proximity assay (SPA) beads (RPNQ0001) from PerkinElmer and cell membranes from the Amylin 3(a)/CRE-luc cells (as described in Assay (II)) were used. Membranes were prepared in the following way; the cells were rinsed with PBS and incubated with Versene for approximately 5 min before harvesting. The cells were flushed with PBS and the cell-suspension was centrifuged for 5 min at 1000 rpm. Cells were homogenized (ultrathurrax) in a buffer containing 20 mM Na-HEPES and 10 mM EDTA (pH 7.4) and centrifuged at 20.000 rpm for 15 min. The resulting pellet was resuspended, homogenized and centrifuged (20.000 rpm, 15 min) in a buffer containing 20 mM Na-HEPES and 0.1 mM EDTA (pH 7.4, buffer 2). The resulting pellet was resuspended in buffer 2 and protein concentration was measured (BCA protein Assay, Pierce). The homogenate was kept cold during the whole procedure. The membranes were kept at −80° C. until use. The assay was performed in a 384 well Optiplate (PerkinElmer) in a total volume of 40 ul. Membranes were mixed with SPA beads. Final concentration of membranes 35 ng/μL final and SPA beads was 0.05 mg/well. Test-compounds were dissolved in DMSO and further diluted in assay buffer (50 mM Hepes, pH 7.4, 1 mM CaCl2, 5 mM MgCl₂, 0.1% OA and 0.02% Tween20). […] The final mixture was incubated with shaking at 400 rpm for 120 min at 25° C. prior to centrifugation (1500 rpm, 10 min). Samples were analyzed on TopCounter™ (Packard). The IC₅₀ was calculated using (one site binding competition analysis) GraphPad Prism5 as a measure of receptor affinity.
Binder B4 has an IC50 of 0.121 nM. B5 showed an IC50 of 1.01 nM. Binder B6 has an IC50 of 0.348 nM.
